Assays:
[1] = molecular target: T1, drHerA (Deinococcus radiodurans, UniProt Q9RW32); experiment: X-ray crystal structure, […] Å; assay type: binding; settings: Mg2+; crystals set up with ADP, NaF and AlCl3, only ADP seen; one ADP per protomer
T1 construct: gene DR_0837; full length, residues 1-618, N-terminal 6xHis tag (pET28a), expressed in E. coli Rosetta (DE3); homohexamer; ADP site between two protomers
T1 sequence (Q9RW32 1-618): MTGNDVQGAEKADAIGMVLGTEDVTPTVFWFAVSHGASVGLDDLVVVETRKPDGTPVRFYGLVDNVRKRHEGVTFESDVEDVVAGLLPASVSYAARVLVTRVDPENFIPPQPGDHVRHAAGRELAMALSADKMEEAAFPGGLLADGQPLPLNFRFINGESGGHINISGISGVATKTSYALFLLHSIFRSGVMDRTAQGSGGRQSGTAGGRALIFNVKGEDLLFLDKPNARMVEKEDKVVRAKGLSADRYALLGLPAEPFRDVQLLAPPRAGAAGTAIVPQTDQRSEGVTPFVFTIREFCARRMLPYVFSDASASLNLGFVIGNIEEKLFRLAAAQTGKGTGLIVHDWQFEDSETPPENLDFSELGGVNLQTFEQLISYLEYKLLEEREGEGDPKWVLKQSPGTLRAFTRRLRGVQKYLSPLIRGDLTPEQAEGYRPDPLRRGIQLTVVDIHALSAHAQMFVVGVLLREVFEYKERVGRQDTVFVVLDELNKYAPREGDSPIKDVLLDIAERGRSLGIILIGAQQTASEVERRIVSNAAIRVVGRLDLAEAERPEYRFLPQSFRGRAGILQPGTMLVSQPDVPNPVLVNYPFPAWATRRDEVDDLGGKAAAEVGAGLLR

[2] = molecular target: Deinococcus radiodurans HerA (Deinococcus radiodurans); experiment: crystal structure; drHerA with ADP bound (set up with ADP•AlF3, MgAc), space group P2(1)2(1)2(1), 3.4 Å; 0.2 M MgCl2, 0.1 M HEPES (pH 7.8), 14% PEG 3350
[3] = molecular target: Deinococcus radiodurans HerA (Deinococcus radiodurans); experiment: crystal structure; drHerA without any ligand, space group P3(1)21, 3.0 Å; sitting drop at 289 K, 0.1 M HEPES (pH 7.5), 1.3 M NaAc
[4] = molecular target: Deinococcus radiodurans HerA (Deinococcus radiodurans); experiment: cryo-EM structure; 2D class averages (top views) of purified drHerA alone, with ADP, with ADPNP or with 46-bp dsDNA; 200 kV Tecnai F20
[5] = molecular target: Deinococcus radiodurans HerA (Deinococcus radiodurans); experiment: cryo-EM structure; purified drNurA-HerA complex, low-resolution (~9 Å) map, 200 kV, 3D refinement with C2 symmetry; drHerA crystal structure and an AlphaFold2 model of drNurA fitted and refined into the map
[6] = molecular target: Deinococcus radiodurans NurA (Deinococcus radiodurans); experiment: as above
[7] = molecular target: Deinococcus radiodurans HerA (Deinococcus radiodurans)
[8] = molecular target: HerA with point mutations D78A, E80A, and D81A (Deinococcus radiodurans)

Molecule: Nc1ncnc2c1ncn2[C@@H]1O[C@H](COP(=O)(O)OP(=O)(O)O)[C@@H](O)[C@H]1O [ADP]
- X-ray crystal structure, 3.4 Å [1]: each protomer is bound to one ADP molecule

Molecule: Deinococcus radiodurans HerA (enzyme)
- stoichiometry N [2]: 6
- stoichiometry N [3]: 6
- stoichiometry N [4]: 6
- stoichiometry N [5]: 6

Molecule: Deinococcus radiodurans NurA (enzyme)
- stoichiometry N [6]: 2
- ATPase activity of drHerA with drNurA, Mn2+, ds DNA (ATPase mol/protein/min) [7]: 4.18
- ATPase activity of drHerA with drNurA, Mn2+, no DNA (ATPase mol/protein/min) [7]: 0.42
- ATPase activity of drHerA with drNurA, Mn2+, ss DNA (ATPase mol/protein/min) [7]: 28.6
- ATPase activity of HerA^m with drNurA, Mn2+, ds DNA (ATPase mol/protein/min) [8]: 0.38
- ATPase activity of HerA^m with drNurA, Mn2+, no DNA (ATPase mol/protein/min) [8]: < 0.01
- ATPase activity of HerA^m with drNurA, Mn2+, ss DNA (ATPase mol/protein/min) [8]: 6.01
